Laboratory results from IntAct's records for PubMed 21666598.

B1: Shugoshin 2 (Homo sapiens), Q562F6 (parent)
chain: MECPVMETGSLFTSGIKRHLKDKRISKTTKLNVSLASKIKTKILNNSSIFKISLKHNNRALAQALSREKENSRRITTEKMLLQKEVEKLNFENTFLRLKLNNLNKKLIDIEALMNNNLITAIEMSSLSEFHQSSFLLSASKKKRISKQCKLMRLPFARVPLTSNDDEDEDKEKMQCDNNIKSKTLPDIPSSGSTTQPLSTQDNSEVLFLKENNQNVYGLDDSEHISSIVDVPPRESHSHSDQSSKTSLMSEMRNAQSIGRRWEKPSPSNVTERKKRGSSWESNNLSADTPCATVLDKQHISSPELNCNNEINGHTNETNTEMQRNKQDLPGLSSESAREPNAECMNQIEDNDDFQLQKTVYDADMDLTASEVSKIVTVSTGIKKKSNKKTNEHGMKTFRKVKDSSSEKKRERSKRQFKNSSDVDIGEKIENRTERSDVLDGKRGAEDPGFIFNNEQLAQMNEQLAQVNELKKMTLQTGFEQGDRENVLCNKKEKRITNEQEETYSLSQSSGKFHQESKFDKGQNSLTCNKSKASRQTFVIHKLEKDNLLPNQKDKVTIYENLDVTNEFHTANLSTKDNGNLCDYGTHNILDLKKYVTDIQPSEQNESNINKLRKKVNRKTEIISGMNHMYEDNDKDVVHGLKKGNFFFKTQEDKEPISENIEVSKELQIPALSTRDNENQCDYRTQNVLGLQKQITNMYPVQQNESKVNKKLRQKVNRKTEIISEVNHLDNDKSIEYTVKSHSLFLTQKDKEIIPGNLEDPSEFETPALSTKDSGNLYDSEIQNVLGVKHGHDMQPACQNDSKIGKKPRLNVCQKSEIIPETNQIYENDNKGVHDLEKDNFFSLTPKDKETISENLQVTNEFQTVDLLIKDNGNLCDYDTQNILELKKYVTDRKSAEQNESKINKLRNKVNWKTEIISEMNQIYEDNDKDAHVQESYTKDLDFKVNKSKQKLECQDIINKHYMEVNSNEKESCDQILDSYKVVKKRKKESSCKAKNILTKAKNKLASQLTESSQTSISLESDLKHITSEADSDPGNPVELCKTQKQSTTTLNKKDLPFVEEIKEGECQVKKVNKMTSKSKKRKTSIDPSPESHEVMERILDSVQGKSTVSEQADKENNLENEKMVKNKPDFYTKAFRSLSEIHSPNIQDSSFDSVREGLVPLSVSSGKNVIIKENFALECSPAFQVSDDEHEKMNKMKFKVNRRTQKSGIGDRPLQDLSNTSFVSNNTAESENKSEDLSSERTSRRRRCTPFYFKEPSLRDKMRR

Variants of: B1
Conditions: with md2l1_human MAD2L1, Q13257
Chain of md2l1_human MAD2L1, Q13257 (Q13257 whole entry): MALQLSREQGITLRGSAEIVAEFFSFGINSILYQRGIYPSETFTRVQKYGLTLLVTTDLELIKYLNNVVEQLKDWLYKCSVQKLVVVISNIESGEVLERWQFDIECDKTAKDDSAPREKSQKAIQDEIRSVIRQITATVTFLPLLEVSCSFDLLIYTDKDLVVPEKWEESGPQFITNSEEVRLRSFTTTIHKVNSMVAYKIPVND

effect of a mutation on the interaction	Variant
disrupting interaction	R153A

Variants of: B1
Conditions: with pp1a_human PPP1CA

effect of a mutation on the interaction	Variant
disrupting interaction	N58I
